# Data as given in PMC4849863 (Nature structural & molecular biology, 2015).
# T1: Mcm5 (S. cerevisiae), subunit of CMG (Saccharomyces cerevisiae, UniProt P29496 1-775)
# T1 sequence (looked up): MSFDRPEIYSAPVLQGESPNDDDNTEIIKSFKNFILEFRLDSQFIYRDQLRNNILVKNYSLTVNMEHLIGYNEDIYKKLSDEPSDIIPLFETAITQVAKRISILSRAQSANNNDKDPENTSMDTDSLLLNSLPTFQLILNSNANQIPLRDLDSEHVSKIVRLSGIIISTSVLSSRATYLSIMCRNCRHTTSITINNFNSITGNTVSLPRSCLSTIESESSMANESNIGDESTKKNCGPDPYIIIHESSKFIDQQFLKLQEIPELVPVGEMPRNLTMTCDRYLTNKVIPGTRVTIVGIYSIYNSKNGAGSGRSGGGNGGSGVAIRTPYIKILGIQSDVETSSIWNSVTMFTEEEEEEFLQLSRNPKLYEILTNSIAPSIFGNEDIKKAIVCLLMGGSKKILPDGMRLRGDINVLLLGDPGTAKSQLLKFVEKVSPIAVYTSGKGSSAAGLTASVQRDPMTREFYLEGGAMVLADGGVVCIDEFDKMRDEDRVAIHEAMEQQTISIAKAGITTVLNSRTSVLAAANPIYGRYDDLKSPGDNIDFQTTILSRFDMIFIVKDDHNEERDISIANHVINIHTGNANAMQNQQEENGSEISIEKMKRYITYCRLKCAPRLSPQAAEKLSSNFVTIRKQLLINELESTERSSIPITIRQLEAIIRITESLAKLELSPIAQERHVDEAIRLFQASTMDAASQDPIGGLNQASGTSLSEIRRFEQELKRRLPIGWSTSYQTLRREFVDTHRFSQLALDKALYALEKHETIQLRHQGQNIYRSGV
# T2: Cdc45 (S. cerevisiae), subunit of CMG (Saccharomyces cerevisiae, UniProt Q08032 1-650)
# T2 sequence (looked up): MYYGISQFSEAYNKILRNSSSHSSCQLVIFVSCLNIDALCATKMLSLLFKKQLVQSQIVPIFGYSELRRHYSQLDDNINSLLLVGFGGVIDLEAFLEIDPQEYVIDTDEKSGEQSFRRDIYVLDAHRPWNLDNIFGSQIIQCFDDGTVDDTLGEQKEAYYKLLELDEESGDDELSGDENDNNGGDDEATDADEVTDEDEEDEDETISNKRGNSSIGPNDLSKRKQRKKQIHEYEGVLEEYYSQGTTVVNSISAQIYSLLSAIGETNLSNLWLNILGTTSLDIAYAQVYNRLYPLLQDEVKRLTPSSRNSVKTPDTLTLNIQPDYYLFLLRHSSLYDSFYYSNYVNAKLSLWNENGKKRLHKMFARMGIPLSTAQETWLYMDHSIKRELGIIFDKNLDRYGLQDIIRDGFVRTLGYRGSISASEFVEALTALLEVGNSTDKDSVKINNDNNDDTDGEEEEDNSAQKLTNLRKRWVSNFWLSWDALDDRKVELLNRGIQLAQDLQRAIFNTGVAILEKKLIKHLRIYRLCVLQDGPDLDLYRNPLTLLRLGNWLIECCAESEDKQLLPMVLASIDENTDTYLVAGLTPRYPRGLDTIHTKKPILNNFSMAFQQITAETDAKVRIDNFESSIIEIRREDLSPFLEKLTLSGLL
# B1: Dpb2 (S. cerevisiae), subunit of Pol ε (natural protein, Saccharomyces cerevisiae, UniProt P24482 1-689, looked up)
# chain: MFGSGNVLPVKIQPPLLRPLAYRVLSRKYGLSIKSDGLSALAEFVGTNIGANWRQGPATIKFLEQFAAVWKQQERGLFIDQSGVKEVIQEMKEREKVEWSHEHPIQHEENILGRTDDDENNSDDEMPIAADSSLQNVSLSSPMRQPTERDEYKQPFKPESSKALDWRDYFKVINASQQQRFSYNPHKMQFIFVPNKKQNGLGGIAGFLPDIEDKVQMFLTRYYLTNDRVMRNENFQNSDMFNPLSSMVSLQNELSNTNRQQQSSSMSITPIKNLLGRDAQNFLLLGLLNKNFKGNWSLEDPSGSVEIDISQTIPTQGHYYVPGCMVLVEGIYYSVGNKFHVTSMTLPPGERREITLETIGNLDLLGIHGISNNNFIARLDKDLKIRLHLLEKELTDHKFVILGANLFLDDLKIMTALSKILQKLNDDPPTLLIWQGSFTSVPVFASMSSRNISSSTQFKNNFDALATLLSRFDNLTENTTMIFIPGPNDLWGSMVSLGASGTLPQDPIPSAFTKKINKVCKNVVWSSNPTRIAYLSQEIVIFRDDLSGRFKRHRLEFPFNESEDVYTENDNMMSKDTDIVPIDELVKEPDQLPQKVQETRKLVKTILDQGHLSPFLDSLRPISWDLDHTLTLCPIPSTMVLCDTTSAQFDLTYNGCKVINPGSFIHNRRARYMEYVPSSKKTIQEEIYI
# B2: Dpb4 (S. cerevisiae), subunit of Pol ε (natural protein, Saccharomyces cerevisiae, UniProt Q04603 1-196, looked up)
# chain: MPPKGWRKDAQGNYPTTSYIKEQENITIQDLLFPKSTIVNLAREVPQQSGKKLLINKDASLALQRGATVFVNHLLLFAREIAKSQDKKSCSVDDVLSALDHIGHSALKGPVRDKLDEYQAAVEQRKKEKLDSGEVDADGDIDMGEDKENVPVEKVKEHDEIEEQGDALQDVEESSEKKQKTESQDVETRVQNLEQT
# B3: GINS heterotetramer (Psf1, Psf2, Psf3, Sld5) of S. cerevisiae CMG (complex, Saccharomyces cerevisiae)
# chain 1: MYGDLGNKLVLEAKRTKQLYARSNQDVNLPMYHEDIIRNILKEVSNLRKNTEYLKEQQQLGMLDDKVAKCQYFVTLLCMERNKRCLLAYQRLRTDILDSMAWNNNGLDLMSSITFSQQDTNNLSHQEQEYLKEYCDLITDLKSGDLVDIDLSGSLVPPSDVFIDVRVLKDAGEIQTEYGVFNLIKDSQFFVRQSDVERLIQQGYLQKI
# chain 2: MSLPAHLQQTFSPEEIQFIVENEPIKIFPRITTRQKIRGDDRGTGNHTRWQLITTDDKALNNMVAMRSTEVVLWIALLLKQQSKCSIVAPQWLTTKELDRKIQYEKTHPDRFSELPWNWLVLARILFNKAKDDFHDPIHELRGKIQDLREIRQIKVLKGLKYLNESHLQLDNLSLLEINELRPFITEIMDKLREIHTASLTAGTENDEEEFNI
# chain 3: MGYYDIDDVLADGTEFPCKFQYDIPGLGYLENNPGRPITKNTKLSLPLWLARILAIVGGDEALVDEEPVPFVELLPPDMFSTKVMNAIKTDPVALDLHSINSHFFSLAIKWIMLFSEKELANVVSELLLQRAQELNHHASSLSIDLNADSTGKNSANTNIATSTFLLKLEEMEKEIYKKSHESYKDTKRWMFKK
# chain 4: MDINIDDILAELDKETTAVDSTKITQGSSSTTHRDANTIVGSSLDLNDKTQIYVSPQQDFSDLMKSWKNERCSPELLPYPHQLMKRLLNRISMQSQLIENISMGFLDMQNASNANPPMPNESKLPLLCMETELERLKFVIRSYIRCRLSKIDKFSLYLRQLNEDENSLISLTDLLSKDEIKYHDTHSLIWLKLVNDSILKYMPEELQAINDTEGSVNMIDEPDWNKFVFIHVNGPPDGKWNEDPLLQENEFGKPCYTVTIPDLKEEVELTIGSIYVMRYEVIRDLLRDDKVALI
# B4: Psf1 (S. cerevisiae), subunit of GINS in CMG (natural protein, Saccharomyces cerevisiae, UniProt Q12488 1-208, looked up)
# chain: B3 chain 1
# B5: Dpb3 (S. cerevisiae), subunit of Pol ε (natural protein, Saccharomyces cerevisiae, UniProt P27344 1-201, looked up)
# chain: MSNLVKEKAPVFPISKVKKIAKCDPEYVITSNVAISATAFAAELFVQNLVEESLVLAQLNSKGKTSLRLSLNSIEECVEKRDNFRFLEDAIKQLKKNSALDKKRELNMQPGRSDQEVVIEEPELHEDDGVEEEEEEDEVSEEEEPVHNEELLDDSKDQQNDKSTRSVASLLSRFQYKSALDVGEHSDSSDIEVDHTKSTDP
# B6: 80/75mer unprimed fork (mixed)
# DNA 1: CCCCCACCGATGTGGTAGGAAGTGAGAATTGGAGAGTGTGTTTTTTTTTTTTTTTTTTTTTTTTTTTTTTTTTTTTTTTT
# DNA 2: TTTTTTTTTTTTTTTTTTTTTTTTTTTTTTTTTTTTTTTTCACACTCTCCAATTCTCACTTCCTACCACATCGGT
# Assays:
# [1] = molecular target: T1, Mcm5 (S. cerevisiae), subunit of CMG; experiment: cross-linking
# [2] = molecular target: T2, Cdc45 (S. cerevisiae), subunit of CMG; experiment: cross-linking
# [3] = molecular target: Mcm3 (S. cerevisiae), subunit of CMG (Saccharomyces cerevisiae, UniProt P24279 1-971); experiment: cross-linking
# [4] = molecular target: B1; experiment: cross-linking
# [5] = molecular target: CMG helicase (Cdc45-Mcm2-7-GINS, 11 subunits) (Saccharomyces cerevisiae, UniProt P29469;P24279;P30665;P29496;P53091;P38132;Q08032;Q12488;P40359;Q12146;Q03406 …); experiment: EMSA
# Chain of Mcm3 (S. cerevisiae), subunit of CMG (P24279 whole entry): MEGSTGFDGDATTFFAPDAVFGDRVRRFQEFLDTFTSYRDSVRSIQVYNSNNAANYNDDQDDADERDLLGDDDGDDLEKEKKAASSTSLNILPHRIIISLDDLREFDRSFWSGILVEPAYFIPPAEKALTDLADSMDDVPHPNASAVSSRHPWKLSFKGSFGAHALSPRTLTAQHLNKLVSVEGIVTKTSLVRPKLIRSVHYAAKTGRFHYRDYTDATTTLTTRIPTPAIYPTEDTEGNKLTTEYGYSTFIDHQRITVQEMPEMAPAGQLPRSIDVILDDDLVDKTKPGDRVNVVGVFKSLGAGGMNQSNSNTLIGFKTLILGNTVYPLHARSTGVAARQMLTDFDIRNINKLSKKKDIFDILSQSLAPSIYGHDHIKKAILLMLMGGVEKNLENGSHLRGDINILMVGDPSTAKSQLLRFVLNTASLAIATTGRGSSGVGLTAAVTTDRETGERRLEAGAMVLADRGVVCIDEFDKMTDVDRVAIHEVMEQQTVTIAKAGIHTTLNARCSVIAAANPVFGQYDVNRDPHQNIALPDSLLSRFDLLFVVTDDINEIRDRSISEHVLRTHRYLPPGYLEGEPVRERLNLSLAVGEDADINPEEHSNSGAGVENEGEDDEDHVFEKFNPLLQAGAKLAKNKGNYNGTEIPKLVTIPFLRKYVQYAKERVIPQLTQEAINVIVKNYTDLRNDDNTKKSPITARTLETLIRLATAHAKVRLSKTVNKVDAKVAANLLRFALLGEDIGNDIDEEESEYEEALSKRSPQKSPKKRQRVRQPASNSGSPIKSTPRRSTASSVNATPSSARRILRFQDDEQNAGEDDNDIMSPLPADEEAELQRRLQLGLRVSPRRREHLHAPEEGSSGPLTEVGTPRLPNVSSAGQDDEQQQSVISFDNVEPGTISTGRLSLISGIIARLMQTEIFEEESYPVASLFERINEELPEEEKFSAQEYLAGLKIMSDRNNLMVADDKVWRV
binder,measurement,setting,value
B1,binding result,[1],binds
B2,binding result,[2],binds
B3,binding result,[3],binds
B4,binding result,[4],binds
same,binding result,[2],binds
B5,binding result,[2],binds
B6,binding result,[5],binds
